Measured values published in paper doi:10.1101/2023.10.27.564484, “Insights into Molecular Diversity within the FET Family: Unraveling Phase Separation of the N-Terminal Low Complexity Domain from RNA-Binding Protein EWS” (bioRxiv, 2023).

B1: EWS low-complexity domain (N-terminal 264 residues of RNA-binding protein EWS) [not stated] / itself (parent)
chain: GAMASTDYSTYSQAAAQQGYSAYTAQPTQGYAQTTQAYGQQSYGTYGQPTDVSYTQAQTTATYGQTAYATSYGQPPTGYTTPTAPQAYSQPVQGYGTGAYDTTTATVTTTQASYAAQSAYGTQPAYPAYGQQPAATAPTRPQDGNKPTETSQPQSSTGGYNQPSLGYGQSNYSYPQVPGSYPMQPVTAPPSYPPTSYSSTQPTSYDQSSYSQQNTYGQPSSYGQQSSYGQQSSYGQQPPTSYPPQTGSYSQAPSQYSQQSSSYGQQ

Variants of: B1
Experiment: pelleting assay (phase separation)
Conditions: with itself; 50 µM protein, 150 mM NaCl, 20 mM Tris pH 7.4; read off a plot

Variant	screen value
GAMASTDYSTYSQAAAQQGYSAYTAQPTQGYAQTTQAYGQQSYGTYGQPTDVSYTQAQTTATYGQTAYATSYGQPPTGYTTPTAPQAYSQPVQGYGTGAYDTTTATVTTTQASYAAQSAYGTQPAYPAYGQQPAATAPTRPQDGNKPTETSQPQSSTGGYNQPSLGYGQSSYSYPQVPGSYPMQPVTAPPSYPPTSYSSTQPTSYDQSSYSQQNTYGQPSSYGQQSSYGQQSSYGQQPPTSYPPQTGSYSQAPSQYSQQSSSYGQQ [chain 1 N171S]	0.6
GAMASTDYSTYSQAAAQQGYSAYTAQPTQGYAQTTQAYGQQSYGTYGQPTDVSYTQAQTTATYGQTAYATSYGQPPTGYTTPTAPQAYSQPVQGYGTGAYDTTTATVTTTQASYAAQSAYGTQPAYPAYGQQPAATAPTRPQDGNKPTETSQPQSSTGGYNQPSLGYGQSNSSSPQVPGSYPMQPVTAPPSYPPTSYSSTQPTSYDQSSYSQQNTYGQPSSYGQQSSYGQQSSYGQQPPTSYPPQTGSYSQAPSQYSQQSSSYGQQ [chain 1 Y172S Y174S]	0.81
GAMASTDYSTYSQAAAQQGYSAYTAQPTQGYAQTTQAYGQQSYGTSGQPTDVSYTQAQTTATYGQTAYATSYGQPPTGYTTPTAPQAYSQPVQGYGTGAYDTTTATVTTTQASYAAQSAYGTQPAYPAYGQQPAATAPTRPQDGNKPTETSQPQSSTGGYNQPSLGYGQSNYSYPQVPGSYPMQPVTAPPSYPPTSYSSTQPTSYDQSSYSQQNTYGQPSSYGQQSSYGQQSSYGQQPPTSYPPQTGSYSQAPSQYSQQSSSYGQQ [chain 1 Y46S]	0.64

The next lines start with the values.

screen value	Variant
0.75	GAMASTDYSTYSQAAAQQGYSAYTAQPTQGYAQTTQAYGQQSYGTYGQPTDVSYTQAQTTATYGQTAYATSYGQPPTGYTTPTAPQAYSQPVQGYGTGAYDTTTATVTTTQASYAAQSAYGTQPAYPAYGQQPAATAPTRPQDGNKPTETSQPQSSTGGYNQPSLGYGQSNYSSPQVPGSYPMQPVTAPPSYPPTSYSSTQPTSYDQSSYSQQNTYGQPSSYGQQSSYGQQSSYGQQPPTSYPPQTGSYSQAPSQYSQQSSSYGQQ [chain 1 Y174S]
0.5	GAMASTDYSTYSQAAAQQGYSAYTAQPTQGYAQTTQAYGQQSYGTYGQPTDVSYTQAQTTATYGQTAYATSYGQPPTGYTTPTAPQAYSQPVQGYGTGAYDTTTATVTTTQASYAAQSAYGTQPAYPAYGQQPAATAPTRPQDGNKPTETSQPQSSTGGYNQPSLGYGQSNYSYPQVPGSYPMQPVTAPPSYPPTSYSSTQPTSYDQSSSSQQNTYGQPSSYGQQSSYGQQSSYGQQPPTSYPPQTGSYSQAPSQYSQQSSSYGQQ [chain 1 Y210S]
